In one test the test system is p2. The test is described as follows: p2 copy number by mKate2 fluorescence calibrated with qPCR. The conditions noted are these: GA-Y021. In kind it is cell-based, S. cerevisiae. The procedure:
To precisely measure p1 and p2 per-base substitution mutation rates, several modifications were made to the small-scale protocol. First, 36 replicates were performed for reconfirmation of candidate TP-DNAP2 mutators, and 48 replicates for genomic and mutual orthogonality experiments. Titers were also determined for each strain after spot plating by pooling the residual volume from 4 replicates and plating dilutions on YPD. The expected number of LEU2 functional mutants (m) was determined by the Ma-Sandri-Sarkar maximum likelihood estimator (as calculated by the FALCOR tool and corrected for partial plating (Foster, 2006, Methods Enzymol, 409:195-213; Sarkar et al., 1992, Genetica, 85:173-179; Hall et al., 2009, Bioinformatics, 25:1564-1565). The mean mKate2 fluorescence was determined from 50,000 event counts on Attune™ NxT Flow Cytometer and converted to p2 copy number by using a calibration curve. To determine per-base substitution rates, the corrected m was normalized to the average cell titer, the p2 copy number, and the target size for functional leu2* reversion (2.33 bp). […]
A standard curve relating p2 copy number to mKate2 fluorescence was prepared by combining quantitative PCR with flow cytometry. […] All extracts were diluted 4000-fold for use in two distinct qPCR reactions, one to quantify p2-encoded leu2* and the other to quantify the genomic copy of LEU3. […]
(In general: Quantitative PCR measures a nucleic acid by following its amplification.)

The test system of another test is p2-delORF2-URA3. The test is described as follows: Complementation of native TP-DNAP2 deletion (p2-delORF2-URA3 replication in trans). In kind it is cell-based, S. cerevisiae. The source says:
First, TP-DNAP2, which is ORF2 of p2, was deleted by homologous recombination of a synthetic cassette encoding URA3. Since p2 is a multi-copy plasmid, the resulting strain (GA-Y069) harbored a mixture of the parental wt p2 and the recombinant p2 with ORF2 deleted (p2-delORF2-URA3), along with unaltered p1. In this strain, both the wt p2 and recombinant p2-delORF2-URA3 plasmids rely on TP-DNAP2 encoded on the parental wt p2 plasmid for replication. Thus, loss of wt p2 should disable replication of p2-delORF2-URA3. […] Next, the same experiment was repeated in the presence of a codon-optimized TP-DNAP2 expressed in trans from a standard yeast CEN6/ARS4 nuclear plasmid (pGA55-reTP-DNAP2). […] Therefore, p2-derived plasmids can be replicated by TP-DNAP2 encoded on a standard nuclear plasmid, simplifying the characterization of p2 replication by error-prone TP-DNAP2 variants.

Numbering of substitutions follows the chain as printed. Names may count otherwise.

B1: WT: wild-type Kluyveromyces lactis DNA polymerase TP-DNAP2, SEQ ID NO:13 (protein, listed as Kluyveromyces lactis)
chain: MNDELAFLNSQIDDYSDDIEFLRTEVFRINRYSKSIYSLMKNSSKEAIKETIEFNKYGQEIHSKIKEKEISLIEAIKLMEKKYKYLRSLNKTKDKSKKKKIHTKDIETLKTIYKTKADFDIRNFKNAETFTYENYSLLIPSEKELIDLIPEIEEDYSYYFYVSLTITGPTIFGGVTRKVPIIDTYGDINKDFYNKIKENITKVLDRVPFYEEKESEIICKKVLITLTVNKWESIDKWYKNVKSKSKKFKDFTLFLASDTSKNCVQQCVEYLGGKWNTNYSLEKMIPQQKIVTYIPLLMDIQYVQSMEDLISDFDEPNTDCKNIARLLKWNGHMGVITKIDKDVKINRIQRKRIIDVENKEVKEVFFDIESFSDETKHQIPYLICWSYLGELYYRTGKNCIKEFVEEILSYNVDIILYAWYGSGYDYQHVLPYMKSKCIKDKYIIKNNMITYGELYYENAIIYLKDPYLFILTSLDKASKAFNVINKGEFPHSIIHSWEDLNKILPNWVKIQKRMIEYKDDNKLNIYYKNIEIFENDRNYNTILENAIEYCKVDVLAMEKVWIKFKKLLEKNLNITVSVKTFTLSQLSMKIMESKLPKYVKLYVPTLEEYSKIRNAIYGGRVISKNGIYEENIVYADVVSLYPSAMKLLKHSYGKPKLVDYIDFEKHGIYRVTLLNKHDQEPKNYLNFVPRRINRKLTWEWFKIHEGWYHTYDLIIAKSEGFDIYCHEGFEYPEKDYIFNDFIDTLYSMKETHTACSCEEQPCPIRMVAKIALNGGGYGKFVQKPIDKEIYIVKRDVVAGECDKLQENENGEICIGKRLVKRPLFYNLDSENYDKMIIEKEDEPIYSTQCGISILSASRYRLYKLCKQFENIDIIYSDTDSIFVKQKSVDWELFKSKCGSELGQLDSTIDDTKNAIISKMYIGGAKMYAFEYLNNKNKLITKLHCKGVPNYMLSLNQFKYLMESPDNTIAYKFEIIRRKLVNVITKDLIKDIKQT
On to B1, for which the “p2 copy number per cell” value with p2 is 128.

B2: Y424Q: TP-DNAP2 variant (protein, listed as Kluyveromyces lactis)
chain: B1 chain with Y424Q
On to B2, for which, in the test on p2-delORF2-URA3, the “ability to complement deletion of native TP-DNAP2 and sustain p2-delORF2-URA3 replication” value is listed as “not active enough to fully complement a deletion of the native TP-DNAP2”.

B3: S370Q: TP-DNAP2 variant (protein, listed as Kluyveromyces lactis)
chain: B1 chain with S370Q
With B3, the “ability to complement deletion of native TP-DNAP2 and sustain p2-delORF2-URA3 replication” value with p2-delORF2-URA3 is “not active enough to fully complement a deletion of the native TP-DNAP2”.
